Data: IntAct's records for PubMed 9082982

Biological target: sap18_drome Bin1 (UniProt Q9VEX9)
Sequence (Q9VEX9 whole entry): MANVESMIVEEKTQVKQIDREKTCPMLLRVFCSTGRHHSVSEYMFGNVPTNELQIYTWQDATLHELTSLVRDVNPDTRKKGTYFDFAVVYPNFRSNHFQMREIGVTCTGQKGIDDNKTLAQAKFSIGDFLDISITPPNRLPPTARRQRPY

Cell division control protein 42 homolog (Homo sapiens), P60953 D118A, sequence (P60953 whole entry D118A): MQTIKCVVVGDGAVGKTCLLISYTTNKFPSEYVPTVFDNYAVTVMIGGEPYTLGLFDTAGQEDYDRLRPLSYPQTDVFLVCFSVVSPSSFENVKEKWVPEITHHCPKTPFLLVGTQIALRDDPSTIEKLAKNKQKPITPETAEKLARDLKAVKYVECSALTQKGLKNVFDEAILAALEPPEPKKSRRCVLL
Cell division control protein 42 homolog (Homo sapiens), P60953 G12V, sequence (P60953 whole entry G12V): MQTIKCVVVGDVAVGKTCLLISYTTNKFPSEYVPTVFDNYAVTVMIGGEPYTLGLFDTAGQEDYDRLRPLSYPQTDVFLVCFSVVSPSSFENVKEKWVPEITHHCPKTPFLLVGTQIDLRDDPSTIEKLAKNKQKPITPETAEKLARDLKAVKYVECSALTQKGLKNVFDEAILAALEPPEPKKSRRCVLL

Substance	effect of a mutation on the interaction
Cell division control protein 42 homolog (Homo sapiens), P60953 D118A	disrupting interaction
Cell division control protein 42 homolog (Homo sapiens), P60953 G12V	increasing interaction
